Biological target: the molecule itself
Assay: cryo-EM structure; Slo1 tetramers in lipid nanodiscs (MSP1E3D1); two samples: Low-Barium (~1.4 mM Ba2+, PDB 7RK6) and High-Barium (10 mM Ba2+ throughout purification, PDB 7RJT); Titan Krios, K2 detector

B1: Aplysia californica Slo1 BK channel (natural protein)
chain: not shown
notes: Homotetramer in lipid nanodiscs (scaffold MSP1E3D1); also called Aplysia Slo1; Aplysia BK channel; not shown: GFP, C-terminal, cleaved; rho-1D4, C-terminal, cleaved
- stoichiometry N: 4

Source: publication PMC11445749, “Structural bases for blockade and activation of BK channels by Ba^2+ ions” (Frontiers in Molecular Biosciences, 2024)
